Test results published in US20050227306.

Key:
[1] = tested on: His6-tetraCys-X-MBP protease substrate 25-F [MBP: P0AEX9]
[2] = tested on: His6-tetraCys-X-MBP protease substrate 26-F [MBP: P0AEX9]
[3] = tested on: His6-tetraCys-X-MBP protease substrate 23-F [MBP: P0AEX9]
[4] = tested on: His6-tetraCys-X-MBP protease substrate 22-F [MBP: P0AEX9]
[5] = tested on: His6-tetraCys-X-MBP protease substrate 24-F [MBP: P0AEX9]
[6] = tested on: His6-tetraCys-X-MBP protease substrate 21-F [MBP: P0AEX9]

| Substance | relative rate of reaction (initial proteolysis rate by fluorescence anisotropy, normalised to the cognate substrate) [1] | relative rate of reaction (initial proteolysis rate by fluorescence anisotropy, normalised to the cognate substrate) (relative rate) [2] | relative rate of reaction (initial proteolysis rate by fluorescence anisotropy, normalised to the cognate substrate) (relative rate) [3] | specific reaction rate (per supplier's unit of enzyme) [3] | relative rate of reaction (initial proteolysis rate by fluorescence anisotropy, normalised to the cognate substrate) (relative rate) [4] | relative rate of reaction (initial proteolysis rate by fluorescence anisotropy, normalised to the cognate substrate) (relative rate) [5] | relative rate of reaction (initial proteolysis rate by fluorescence anisotropy, normalised to the cognate substrate) (relative rate) [6] | SDS-PAGE with Coomassie staining after overnight incubation [1] | relative rate of reaction (initial proteolysis rate by fluorescence anisotropy, normalised to the cognate substrate) (relative rate) [1] | SDS-PAGE with Coomassie staining after overnight incubation [3] | SDS-PAGE with Coomassie staining after overnight incubation [4] | SDS-PAGE with Coomassie staining after overnight incubation [5] | specific reaction rate (per supplier's unit of enzyme) [5] | SDS-PAGE with Coomassie staining after overnight incubation [6] | specific reaction rate (per supplier's unit of enzyme) [1] | specific reaction rate (slope of initial proteolysis rate versus protease concentration) [1] | relative rate of reaction (initial proteolysis rate by fluorescence anisotropy, normalised to the cognate substrate) [2] | specific reaction rate (slope of initial proteolysis rate versus protease concentration) [4] |
| --- | --- | --- | --- | --- | --- | --- | --- | --- | --- | --- | --- | --- | --- | --- | --- | --- | --- | --- |
| Enterokinase | n.d. (not detected) | 1 | 1 | enterokinase, 0.130±0.007 | 1.3 | 0.2 | 0.5 | – | – | – | – | – | – | – | – | – | – | – |
| Factor Xa | – | 0 | 0.01 | – | 0.5 | 1 | 0.04 | formation of a small amount of a small molecular-weight band | 0.05 | formation of a small amount of a small molecular-weight band | little or no intact fusion protein was detected after an overnight incubation | little or no intact fusion protein was detected after an overnight incubation | Factor Xa, 0.37±0.03 | formation of a small amount of a small molecular-weight band | – | – | – | – |
| Thrombin | – | 0 | -0.02 | – | 0.4 | 0 | 0 | – | 1 | – | – | – | – | – | thrombin, 0.20±0.02 | thrombin; 240±20 | – | – |
| Trypsin | – | – | 0.1 | – | 1 | 0.4 | 0.3 | – | 0.5 | – | – | – | – | – | – | – | n.d. (not detected) | trypsin; 760±60 |
